In general, Kd refers to the constant that tells how readily two partners part at equilibrium. For orientation: koff means the first-order rate constant of dissociation. Read a high koff as a short-lived complex. In general, kon refers to the rate constant with which the complex forms.

Numbering of substitutions follows the chain as printed.

The source of these data is patent publication US20260062479A1.

The experiment addresses largest TIRC7 extracellular domain (T-cell immune response cDNA 7) (human) (UniProt Q13488). Briefly: SPR, Biacore T200, 25 C, TIRC7 domain immobilized on CM5 chip, 1:1 kinetic fit. Background: In SPR one partner is held on a chip, and binding of the other changes the refractive index at the surface.

B1: parent antibody (murine anti-TIRC7 antibody 17-20, cAb1457) (antibody, V domains shown)
VH: QVQLKQSGPELVKPGASVKMSCKASGYTFTTYVMHWVKQKPGQGLEWIGYINPYNDGTNYNEKFKGKATLTSDKSSSTAYMELSTLTSEDSAVYYCAEFITKTVGGSNWYLDVWGAGTTVTVSS
VL: DIVLTQSPAIMSASPGEKVTMTCSASSSISYIHWFQQKPGTSPKRWIYDTSKLPSGVPARFSGSGSGTSYSLTISSMEAEDAATYYCHQRSSYTWTFGGGTKLEIK
Take B1: the Kd stood at 300 pM, the koff was 0.00013 s⁻¹ and the kon turned out to be 520000 M⁻¹ s⁻¹.

B2: cAB1467-10.0 (antibody, V domains shown)
VH: QVQLVQSGAEVKKPGASVKVSCKASGYTFTTYVMHWVRQAPGKGLEWMGYINPYNDGTNYNEKFKGRVTLTSDKSTSTAYMELSSLRSEDTAVYYCAEFITKTVGGSNWYLDVWGQGTTVTVSS
VL: DIQLTQSPSFLSASVGDRVTITCSASSSISYIHWFQQKPGKAPKRWIYDTSKLPSGVPSRFSGSGSGTEYTLTISSLQPEDFATYYCHQRSSYTWTFGGGTKLEIK
B2 came in with an association rate constant (kon) of 1.24e+06 M⁻¹ s⁻¹.

B3: cAB1468-10.0 (antibody, V domains shown)
VH: B2 VH
VL: EIVLTQSPATLSLSPGERATLSCSASSSISYIHWYQQKPGQAPRRLIYDTSKLPSGIPARFSGSGSGTDFTLTISSLEPEDFAVYYCHQRSSYTWTFGGGTKLEIK
B3 showed a kon of 1.13e+06 M⁻¹ s⁻¹.

B4: cAB1459-10.0 (antibody, V domains shown)
VH: B2 VH with L70M, S72E, K74T, S77D
VL: B2 VL
With B4, the on-rate (kon) is 3.56e+06 M⁻¹ s⁻¹.
